According to patent publication US20240270813A1 (UNIVERSITY OF PITTSBURGH OF THE COMMONWEALTH SYSTEM OF …, published 2024):
Where a chain is given by its changes, count along the chain named. Values joined by “and” are separate entries in the source; they are usually repeats but may differ in a detail not shown here. Identical values can stand only once.

T1: minor histocompatibility antigen HA-1, immunogenic H variant peptide on HLA-A*02:01 (human)
T1 peptide: VLHDDLLEA

B1: TCR D (TCR, V domains shown)
V domain 1: AQSVAQPEDQVNVAEGNPLTVKCTYSVSGNPYLFWYVQYPNRGLQFLLKYITGDNLVKGSYGFEAEFNKSQTSFHLKKPSALVSDSALYFCAVRAPTSGTYKYIFGTGTRLKVLA
V domain 2: DTGVSQDPRHKITKRGQNVTFRCDPISEHNRLYWYRQTLGQGPEFLTYFQNEAQLEKSRLLSDRFSAERPKGSFSTLEIQRTEQGDSAMYLCASSLVSGNEQFFGPGTRLTVLE
B2: TCR E (TCR, V domains shown)
V domain 1: B1 V domain 1 with A95G
V domain 2: B1 V domain 2
B3: TCR C (TCR, V domains shown)
V domain 1: KQEVTQIPAALSVPEGENLVLNCSFTDSAIYNLQWFRQDPGKGLTSLLLIQSSQREQTSGRLNASLDKSSGRSTLYIAASQPGDSATYLCAVRPRTSGTYKYIFGTGTRLKVLA
V domain 2: B1 V domain 2 with S95T, L96E, V97L, E101T, Q102I, F103Y, P106E, T108S, R109W, L113V
B4: TCR A (TCR, V domains shown)
V domain 1: AQSVAQPEDQVNVAEGNPLTVKCTYSVSGNPYLFWYVQYPNRGLQFLLKYITGDNLVKGSYGFEAEFNKSQTSFHLKKPSALVSDSALYFCAVRGGSYKYIFGTGTRLKVLA
V domain 2: DTGVSQDPRHKITKRGQNVTFRCDPISEHNRLYWYRQTLGQGPEFLTYFQNEAQLEKSRLLSDRFSAERPKGSFSTLEIQRTEQGDSAMYLCASTPGTVYNEQFFGPGTRLTVLE
B5: TCR F (TCR, V domains shown)
V domain 1: GENVEQHPSTLSVQEGDSAVIKCTYSDSASNYFPWYKQELGKRPQLIIDIRSNVGEKKDQRIAVTLNKTAKHFSLHITETQPEDSAVYFCAAHLTGGGNKLTFGTGTQLKVEL
V domain 2: B4 V domain 2 with T95S, P96S, G97R, T98A, V99G, Y100G, N101E, E102T, F104Y, T112L
B6: TCR Z (TCR, V domains shown)
V domain 1: QQVMQIPQYQHVQEGEDFTTYCNSSTTLSNIQWYKQRPGGHPVFLIQLVKSGEVKKQKRLTFQFGEAKKNSSLHITATQTTDVGTYFCAGPKGNTPLVFGKGTRLSVIA
V domain 2: B1 V domain 2 with V97T, S98V, G99S, N100Y, F103Y, L113T
B7: TCR X (TCR, V domains shown)
V domain 1: GENVEQHPSTLSVQEGDSAVIKCTYSDSASNYFPWYKQELGKRPQLIIDIRSNVGEKKDQRIAVTLNKTAKHFSLHITETQPEDSAVYFCVVLGGAGNMLTFGGGTRLMVKP
V domain 2: B1 V domain 2 with V97T, S98V, G99S, N100D, E101G, Q102Y, F103T, P106S, L113V
B8: TCR Y (TCR, V domains shown)
V domain 1: SQQGEEDPQALSIQEGENATMNCSYKTSINNLQWYRQNSGRGLVHLILIRSNEREKHSGRLRVTLDTSKKSSSLLITASRAADTASYFCATAYSGGGADGLTFGKGTHLIIQP
V domain 2: B1 V domain 2 with D7N, V97I, S98R, G99A, N100E, E101K, Q102L, P106S, R109Q, T111S
B9: TCR AD (TCR, V domains shown)
V domain 1: SQQGEEDPQALSIQEGENATMNCSYKTSINNLQWYRQNSGRGLVHLILIRSNEREKHSGRLRVTLDTSKKSSSLLITASRAADTASYFCATVPTDYMYSGGGADGLTFGKGTHLIIQP
V domain 2: B1 V domain 2 with D7N, S98R, G99L, N100D, E101G, Q102Y, F103T, P106S, L113V
B10: TCR AA (TCR, V domains shown)
V domain 1: QQQVKQSPQSLIVQKGGISIINCAYENTAFDYFPWYQQFPGKGPALLIAIRPDVSEKKEGRFTISFNKSAKQFSLHIMDSQPGDSATYFCAASSPGTYKYIFGTGTRLKVLA
V domain 2: B1 V domain 2 with V97L, S98K, G99N, N100T, Q102A, P106Q, L113V
B11: TCR W (TCR, V domains shown)
V domain 1: B1 V domain 1 with A95D
V domain 2: B1 V domain 2 with S98Q
B12: TCR AC (TCR, V domains shown)
V domain 1: SQQGEEDPQALSIQEGENATMNCSYKTSINNLQWYRQNSGRGLVHLILIRSNEREKHSGRLRVTLDTSKKSSSLLITASRAADTASYFCAKNDMRFGAGTRLTVKP
V domain 2: B1 V domain 2 with D7N, V97L, S98V, N100E, E101T, F103Y, T111L
B13: TCR AB (TCR, V domains shown)
V domain 1: AQSVAQPEDQVNVAEGNPLTVKCTYSVSGNPYLFWYVQYPNRGLQFLLKYITGDNLVKGSYGFEAEFNKSQTSFHLKKPSALVSDSALYFCAVRVPTGGYQKVTFGIGTKLQVIP
V domain 2: DTGVSQNPRHKITKRGQNVTFRCDPISEHNRLYWYRQTLGQGPEFLTYFQNEAQLEKSRLLSDRFSAERPKGSFSTLEIQRTEQGDSAMYLCASKLTDTQYFGPGTRLTVLE
B14: TCR V (TCR, V domains shown)
V domain 1: AQTVTQSQPEMSVQEAETVTLSCTYDTSENNYYLFWYKQPPSRQMILVIRQEAYKQQNATENRFSVNFQKAAKSFSLKISDSQLGDTAMYFCALYSGAGSYQLTFGKGTKLSVIP
V domain 2: DTGVSQDPRHKITKRGQNVTFRCDPISEHNRLYWYRQTLGQGPEFLTYFQNEAQLEKSRLLSDRFSAERPKGSFSTLEIQRTEQGDSAMYLCASSLAAGMNTEAFFGQGTRLTVVE
B15: TCR AJ (TCR, V domains shown)
V domain 1: EDQVTQSPEALRLQEGESSSLNCSYTVSGLRGLFWYRQDPGKGPEFLFTLYSAGEEKEKERLKATLTKKESFLHITAPKPEDSATYLCAVHSNAGGTSYGKLTFGQGTILTVHP
V domain 2: DAGVTQSPTHLIKTRGQHVTLRCSPISGHKSVSWYQQVLGQGPQFIFQYYEKEERGRGNFPDRFSARQFPNYSSELNVNALLLGDSALYLCASSADRGSPLHFGNGTRLTVTE
B16: TCR AE (TCR, V domains shown)
V domain 1: B1 V domain 1 with A95C
V domain 2: B1 V domain 2
B17: TCR AG (TCR, V domains shown)
V domain 1: B1 V domain 1 with A95T
V domain 2: B1 V domain 2
B18: TCR AF (TCR, V domains shown)
V domain 1: B1 V domain 1 with A95S
V domain 2: B1 V domain 2
B19: TCR AB (TCR, V domains shown)
Valpha: B13 V domain 1
Vbeta: DTGVSQNPRHKITKRGQNVTFRCDPISEHNRLYWYRQTLGQGPEFLTYFQNEAQLEKSRLLSDRFSAERPKGSFSTLEIQRTEQGDSAMYLCASKLTDTQYFGPGTRLTVL
B20: TCR Z (TCR, V domains shown)
Valpha: B6 V domain 1
Vbeta: DTGVSQDPRHKITKRGQNVTFRCDPISEHNRLYWYRQTLGQGPEFLTYFQNEAQLEKSRLLSDRFSAERPKGSFSTLEIQRTEQGDSAMYLCASSLTVSYEQYFGPGTRLTVT
B21: TCR AA (TCR, V domains shown)
Valpha: B10 V domain 1
Vbeta: B20 Vbeta with T97L, V98K, S99N, Y100T, Q102A, Y103F, P106Q, T113V
B22: TCR AD (TCR, V domains shown)
Valpha: B9 V domain 1
Vbeta: B20 Vbeta with D7N, T97V, V98R, S99L, Y100D, E101G, Q102Y, Y103T, P106S, T113V
B23: TCR AC (TCR, V domains shown)
Valpha: B12 V domain 1
Vbeta: B20 Vbeta with D7N, T97L, S99G, Y100E, E101T, T111L, T113L
B24: TCR AJ (TCR, V domains shown)
Valpha: B15 V domain 1
Vbeta: DAGVTQSPTHLIKTRGQHVTLRCSPISGHKSVSWYQQVLGQGPQFIFQYYEKEERGRGNFPDRFSARQFPNYSSELNVNALLLGDSALYLCASSADRGSPLHFGNGTRLTVT

biological target: T2, HA-1 “H” peptide (…) presented by HLA-A*02:01 on antigen presenting cells (human); assay: cell-based or functional assay

| Binder | EC50 for CD69 Expression |
| --- | --- |
| B1 | < 10 nM and < 10 ng/mL |
| B2 | < 10 ng/mL and < 10 nM |
| B3 | < 10 ng/mL and < 10 nM |
| B4 | < 10 ng/mL and < 10 nM |
| B5 | < 10 ng/mL and < 10 nM |

biological target: T2, HA-1 “H” peptide (…) presented by …; assay: cell-based or functional assay; remark: another data set of the same source

| Binder | EC50 values for CD69 Expression [ng/mL] |
| --- | --- |
| B6 | 1.5 |
| B7 | 23.6 |
| B8 | 10.8 |
| B9 | 4.9 |
| B10 | 1.1 |
| B11 | 7.18 |
| B12 | 0.9 |
| B13 | 40.2 |
| B14 | 125 |
| B15 | 5 |

biological target: T2, HA-1 “H” peptide (…) presented by …; assay: cell-based or functional assay; remark: another data set of the same source

| Binder | EC50 values for CD69 Expression [ng/mL] |
| --- | --- |
| B16 | 2.77 |
| B17 | 2.27 |
| B18 | 2.49 |

Biological target: T1, minor histocompatibility antigen HA-1, …
Assay: multimer staining

| Binder | binding result |
| --- | --- |
| B19 | recognises |
| B20 | recognises |
| B21 | recognises |
| B22 | recognises |
| B23 | recognises |
| B24 | recognises |
